Data published in the DeepSol protein solubility set.

Test: soluble on expression in E. coli; label from the status in PepcDB or PDB records

Sequence | soluble on expression in E. coli
MSNVPAELKYSKEHEWLRKEADGTYTVGITEHAQELLGDMVFVDLPEVGATVSAGDDCAVAESVKAASDIYAPVSGEIVAVNDALSDSPELVNSEPYTGGWIFKIKASDESELESLLDATAYEALLEDE | not soluble
NHYLQAEVVTAFLGLQHAAKRADFNLQPASTYRDFNRQMLIWNAKFNGKRKIHNDASKQIDITTLTDLAKIKAILRWSAVPGASRHHWGTEIDIFDPDLLPQGQHLQLEPWEYQSNGYFAPLIKWLHQHSASFGFYFPFDGIQNSQ | not soluble
MSLCGLLGILTANGNAEAFVPALERALPCMRHRGPDDAGTWHDADAAFGFNRLSIIDIAHSHQPLRWGPADEPDRYAMTFNGEIYNYVELRKELSDLGYAFNTSGDGEPIVVGFHHWGESVVEHLRGMFGIAIWDTKEKSLFLARDQFGIKPLFYATTEHGTVFSSEKKTILEMAEEMNLDLGLDKRTIEHYVDLQYVPEPDTLHAQISRLESGCTATVRPGGKLEQKRYFKPQFPVQKVVKGKEQDLFDRIAQVLEDSVEKHMRADVTVGSFLSGGIDSTAIAALAKRHNPDLLTFTTGFEREGYSEVDVAAESAAAIGAEHIVKIVSPEEYANAIPKIMWYLDDPVADPSLVPLYFVAAEARKHVKVVLSGEGADELFGGYTIYKEPLSLAPFEKIPSPLRKGLGKLSKVLPDGMKGKSLLERGSMTMEERYYGNARSFNFEQMQRVIPWAKREWDHREVTAPIYAQSRNFDPVARMQHLDLFTWMRGDILVKADKINMANSLELRVPFLDKEVFKVAETIPYDLKIANGTTKYALRRALEQIVPPHVLHRKKLGFPVPMRHWLAGDELFGWAQDTIKESGTEDIFNKQAVLDMLNEHRDGVSDHSRRLWTVLSFMVWHGIFVENRIDPQIEDRSYPVEEGHHHHHH | soluble
MNLHEYQAKEILARYGVPVPPGKVAYTPEEAKRIAEEFGKRVVIKAQVHVGGRGKAGGVKLADTPQEAYEKAQAILGMNIKGLTVKKVLVAEAVDIAKEYYAGLILDRAKKRVVLMLSKEGGVDIEEVAAERPEAIHKFWIDPHKGFRPFEAREMVKRAGLEGNLNKLAQVLVALYRAYEGVDASIAEINPLVVTTDGGIVAADAKIVLDDNALFRHPDLAELREVEAEHPLEVEASNYGFAYVKLDGNIGIIGNGAGLVMYTLDLVNRVGGKPANFLDIGGGAKADVVYNALKVVLKDPDVKGVFINIFGGITRADEVAKGVIRALEEGLLTKPVVMRVAGTAEEEAKKLLEGKPVYMYPTSIEAAKVIVAMVGGAA | soluble
MIKVVVRKRPLSELEKKKKDSDIITVKNNCTLYIDEPRYKVDMTKYIERHEFIVDKVFDDTVDNFTVYENTIKPLIIDLYENGCVCSCFAYGQTGSGKTYTMLGSQPYGQSDTPGIFQYAAGDIFTFLNIYDKDNTKGIFISFYEIYCGKLYDLLQKRKMVAALENGKKEVVVKDLKILRVLTKEELILKMIDGVLLRKIGVNSQNDESSRSHAILNIDLKDINKNTSLGKIAFIDLAGSERGADTVSQNKQTQTDGANINRSLLALKECIRAMDSDKNHIPFRDSELTKVLRDIFVGKSKSIMIANISPTISCCEQTLNTLRYSSRVKNKGNSKLEGKPIPNPLLGLDSSRTGHHHHHH | soluble
MAQNNENALPDITKSITLEAPIQKVWETVSTSEGIAKWFMPNDFQLKEGQEFHLQSPFGPSPCKVLAVQAPTELSFEWDTEGWVVTFQLEDLGEKTGFTLIHSGWKEPNEVIGKANEKSSVVRGKMDGGWTGIVNERLRKAVEE | not soluble
MTLRYEIFPVTPFRQNCTLIWDDESGEAVLTDVGGDVPFLLQALANRKLTLTAIWLTHGHLDHAGGVVEMLKTHKVPVLGPHPDDEFLLQSLPQTTAQYGFPVSPAFAPNRWLEEGETLTVGRYAFQVLHIPGHTPGHIVFYCAEAELLIAGDVLFYETIGRTDFPRGNHADLINNIRNKLFTLPETVQVVAGHGRMTSIGHEKRHNPFF | not soluble
VPKVTFTVEKGSNEKHLAVLVKYEGDTMAEVELREHGSDEWVAMTKGEGGVWTFDSEEPLQGPFNFRFLTEKGMKNVFDDVVPEKYTIGATYAPEE | soluble
MTTPKTFVPELLSPAGSLKNMRYAFAYGADAVYAGQPRYSLRVRNNEFNHENLQIGINEAHALGKKFYVVCNIQPHNSKLKTFIRDLKPVIDMGPDALIMSDPGLIMMVREEFPHMPIHLSVQANAVNWATVKFWASQGVERVIVSRELSLEEIEEIREKCPNTEIEVFVHGALCMAYSGRCLLSGYINKRDPNQGTCTNACRWEYKVEAAKEDEAGQIVEQFDPNAAQAIEVQNERPDTTIGAGKPIDDVVLLSESHRPDEKMAAFEDEHGTYIMNSKDLRAVQHVERLTQMGVHSLKIEGRTKSFYYCARTAQVYRKAIDDAVAGKPFDDSLMTTLESLAHRGYTEGFLRRHTHDAYQNYDYGYSVSDTQQFVGEFTGKRRGAMAEVEVKNKFVLGDSLELMTPKGNVIFTLEAMENRKGEATDDAKGNGHFVYIPVPEELDLSYALLMRNLVQGQDTRNPTGK | not soluble
MGSDKIHHHHHHMNLRVLGKILLDEMRNGDVAIVEYSSSSPIHRLVWGEIILKYVDRYEFVIDDFFGIGDVMFRTYLRRISSPDEYTKIMEKTKNIKAIKIGPGKISYASKVEELPLTYNLSEFIKLYYPIIRDILAKSSKRVFFITLGLSQYLYLGEAKALETILLSRSVLPIEDWTSIYFLNTDVAPEKAVAALEEISPIVIQVRNNEILVKKI | not soluble
MPPIPEPEIDPVLKELLYAYSVISRARRYAGMAGVPLPLSLTEINEYLATHPVLIERDEFEAVIFALDDQYFQEQCV | not soluble
MAHHHHHHMSVPEWARSEHSIEEAKEYLRTGNSVDFFELVSSHILREHPLDVAAFALDLVERISKLGNTLSARDYHPKRVEDNKYLQEKNVCEFLNEWILALLKERPDTDEARMSFHKRYLKSLVDGGGCSQCTSVN | not soluble
MPSVKIGIIGAGSAVFSLRLVSDLCKTPGLSGSTVTLMDIDEERLDAILTIAKKYVEEVGADLKFEKTMNLDDVIIDADFVINTAMVGGHTYLEKVRQIGEKYGYYRGIDAQEFNMVSDYYTFSNYNQLKYFVDIARKIEKLSPKAWYLQAANPIFEGTTLVTRTVPIKAVGFCHGHYGVMEIVEKLGLEEEKVDWQVAGVNHGIWLNRFRYNGGNAYPLLDKWIEEKSKDWKPENPFNDQLSPAAIDMYRFYGVMPIGDTVRNSSWRYHRDLETKKKWYGEPWGGADSEIGWKWYQDTLGKVTEITKKVAKFIKENPSVRLSDLGSVLGKDLSEKQFVLEVEKILDPERKSGEQHIPFIDALLNDNKARFVVNIPNKGIIHGIDDDVVVEVPALVDKNGIHPEKIEPPLPDRVVKYYLRPRIMRMEMALEAFLTGDIRIIKELLYRDPRTKSDEQVEKVIEEILALPENEEMRKHYLKR | soluble
MAHHHHHHMRARRSCKFAEYLSTYAILEHIGIHPTTLIEKRDAAVGVGVYVRDACDAGTALLAVPSKRFCTTSVLSRVGLKTSFCSPWRADSEVPSTAFAGPTCDVQGGILSFLTGSTQWPELAWRLALEQHRSVSPLWGWLQSLPSVEELADRRDVAERQCRVHHTMLLPYYLKGRQRIREETVAAYSQLRAQNILPCFDRFAWAVDVVLSRGLLLPTAWPTAGGVFTNSTTDGEHEEEDSDPLPHTSLECGVVPFLDLVNAPDDVGRVVNADIEIATSLETLPKFLTDELAADATARGRGGDDLAEVKRLLETHYYLCLTLRKPLRASEEVILEWQVPVLTTEVLTAAEDAIVSRFLKYMF | not soluble
TSRKLNDAANERLAAQQDLRNAATLIVRDARMAGGFGCFNMSEHPATDVIPDTTQQNSPFSLKRNGIDKLIPIAESSNINYQNFFQVGSALIFQYGIDD | not soluble
MSLRPQFEREQWLNLNGTWTFDFDFGKSGKDRRLQSAEKFDKNITVPFCPESKLSGVGYTDFIEQMWYQRNITIPSDWNGKKIFLNFGAVDYCAEIYVDGKFVQRHFGGSSSFAVDLTRYVTPGKTHNLVVFVQDDLRSGLQTGGKQCGNYYSGGCSYTRTTGIWQTVWMEAVSTDGLKSVFVRPDIDQKQLIIEPEFYNESANTLEIILKDGNKTVAKKSVNCANSSVVVLPVKNMKLWSPEDPFLYDLVYQVKDAKGNVLDEVKSYAGMRKVHTANGRFYLNNQPYFQRLVLDQGFYPEGIWTAPSDEDLKNDIVLGKEAGFNGARLHQKVFEERYYYWADKLGYITWGESASWMLDVNKELAARNFLGEWSEVVVRDRNHPSLVTWTPFNETWGGGPDAYVRLVRDVYNITKAIDPTRPVNDASGDNHVITDIWSVHNYEQDRAKLTEQLKMEEGKEPYRNARDKDFLAVYEGQPYMVDEFGGIPWMAEKDRKNSWGYGGMPENAEAFYKRLEGQIDAFIDSPHVTGFCYTQLTDVEQEKNGIYYYDRTPKLDMKRIKAIFEKIKEGHHHHHH | soluble
MGSDKIHHHHHHMAETIETMGGQAALDHVSRLLSLKVDIRGLEHLPAEGRVVIVANHPTGIGDGVAVYDALKTHRPDIVFYANADAHRVCPRFDDVLIPVEWVEEKRSRERMRLTLSMTREAMEAERALMIFPAGRLAVTDAEGRLSDPPWMSSAVSIARKYGAPIAPIHLEGPWSTLFHLFGRLSRELRDITLFHELLNKTGRRFSLTIGPPVDPEALPRDAEQATEVLKRYVERQLPNEPTSPLT | not soluble
MGSDKIHHHHHHMKLEELNSKYNAFITLHTIEEGNDKGKLKDVTFGIKDVILTKDVRTTAGSRVLENYVPQRNAYVVDAILREGGKIIGKTNTHEFALGATNTSSIGGPARNPVDPERISGGSSGGSAVAVKLDMVDVGIGTDTGGSVRIPSSLCGVIGFKPTTGLIPNDGVIPFSWSLDTVGIIVKDNIRLLRRVFDVVLPNEKRKVEIAKLRTRPRLGLFLFDDMEVSRILLKDIYAKLSSHFDIVEVDLPLLRQYGSKTRRTISLAEAASYHKDWISEYSDKYFKDTYTLLLDGMKISATDYIDALRHRRVLIEEYVKVFKNIDFILSPTTKIVAPRISDVISNPLQFREYLIANTELFNVVGAPSISVPFSTLNDLPAGLMISGELYKDGDLLEVAEYILNIVGKH | not soluble
MGSDKIHHHHHHMKLKQSESFKMDAFSMRVGDIEGVELDRLHALSLSVGWPHRAEDWQFLRNVGRGVVVLDEIGRVQGSAMWFEHGADFATVGMVITSPRLQTLGAAQWLMKRIFDKVGGRDLRLNATRAARRLYLSLDFLPEKTVYQCQGIARLETTGGPTDLRDVRALDPSDIPAAIALDAAGFGVRRAALVEKLFVHSAGYGLFKHDKLNAFALCRPFGRGHVVGPVVAESDADAVAVVRPHVADNSGSFLRIDTHMANGDFAAFLSHSGMTVFDTVLTMSMGKRLADFAVNGTVAPVTYALASQTLG | not soluble
MGSDKIHHHHHHMIILGIHDGHDAGAVLLNDEEIYAVNEERLNRVKKYRGFPELSIRKVLEMSGTEPDDVDVIAIAGLFRRQKRLLELEHKLKSIFGPKFKEKAIFVEHHLAHASSAYYSSGLRDAVVLTIDAAGDGLSSTVSIAKDGQMFRIAQSTYIDSLGDFYASVTELLGFKPMRHEGKVMSLAAYGNPRYELSAIIELNGLTFENKLKVIGTEATKKLAEFFEFPLEKAKEVSSNLKRGIMDNELEKKAIEIAASAQAHLERLIEEMGLELKKYELPIAYAGGVAQNVKANAILRRIFGDIWIFPAMDDAGLAFGAAIYVKAQMELLFGKWKPFKLKHVFLGPSYSPEEIEEILKREGLEYEEVDVPSFVADSLVEGKLVGLFQGRLEYGPRALGNRSILADPRNEKVREKLNLALRRDVFQPFAPSILEERFPDYIEDLTGEPNRFMTMSYLASEEFMEVAPAVVHIDGTTRPQSVPKDLGTYYKIIRRFEKRTGVGAVLNTSFNMHGEPIVCSPLDAIRTAKSAKLDVLLLERFGVYIV | not soluble
